This is an account of results in patent US20160108110A1 (Novartis, published 2016).

For experiment [1], the target named is T1, Human ANGPTL4(26-406)-FLAG-His6-Avi (human, UniProt Q9BY76 24-406, biotin on the C-terminal Avi tag in the biotinylated preparations (immobilised form in SET, ELISA and Octet)).
T1 construct: also called full-length human ANGPTL4; hANGPTL4
T1 sequence: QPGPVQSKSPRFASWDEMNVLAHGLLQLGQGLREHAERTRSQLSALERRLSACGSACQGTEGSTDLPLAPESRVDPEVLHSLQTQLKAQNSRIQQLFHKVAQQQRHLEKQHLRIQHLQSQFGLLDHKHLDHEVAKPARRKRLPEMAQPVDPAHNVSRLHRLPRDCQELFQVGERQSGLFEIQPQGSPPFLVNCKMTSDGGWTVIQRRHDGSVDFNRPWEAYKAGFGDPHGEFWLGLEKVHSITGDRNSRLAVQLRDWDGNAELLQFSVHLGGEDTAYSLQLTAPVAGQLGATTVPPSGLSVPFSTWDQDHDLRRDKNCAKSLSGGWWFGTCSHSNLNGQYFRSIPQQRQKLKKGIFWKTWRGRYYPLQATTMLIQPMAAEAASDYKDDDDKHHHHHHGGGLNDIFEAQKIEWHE
Description: SET assay (solution equilibrium titration, MSD), IgG. How it is done: (§1) SET assays were performed as follows. In a 96-well polypropylene plate, a constant concentration of ANGPTL4 antibody was mixed with different concentrations of non-biotinylated human, cyno, mouse, or rat full-length ANPGLT4 protein, or human ANGPTL4 N-terminal domain protein (5-fold serial dilution) and incubated at 22° C. for 14 hours with constant shaking (300 rpm). On a pre-blocked 384-well streptavidin-coated Meso Scale Discovery (MSD) plate biotinylated ANGPTL4 (full-length human, cyno, mouse, or rat ANGPTL4, or human ANGPTL4 N-terminal domain) protein (1 nM, 15 μL per well) was immobilized and washed thereafter.
(§2) The equilibrium binding reactions (15 μL per well) were applied to the MSD plate with immobilized ANGPTL4 and incubated for 20 min at 22° C. The unbound material was removed by washing the plate 3 times with wash buffer, and the captured antibody was detected by adding Sulfo-tagged goat anti-human IgG (Meso Scale Discovery). After washing MSD read buffer T was added and the plate was developed using a Sector Imager 6000 (Meso Scale Discovery). The data were transferred to Microsoft Excel for analysis and plotted using GraphPad Prism v6. The KD values were determined by fitting the data to the following equation: […]
(§3) where Bₘₐₓ is the signal when no ANGPTL4 protein is present in solution, CAb is the constant concentration of ANGPTL4 antibody in solution, CAg is the concentration of ANGPTL4 in solution, and KD is the equilibrium dissociation constant.

For experiment [2], the target named is T2, Mouse ANGPTL4(26-410)-FLAG-His6-Avi (mouse, UniProt Q9Z1P8 24-410, biotin on the C-terminal Avi tag in the immobilised form).
T2 sequence: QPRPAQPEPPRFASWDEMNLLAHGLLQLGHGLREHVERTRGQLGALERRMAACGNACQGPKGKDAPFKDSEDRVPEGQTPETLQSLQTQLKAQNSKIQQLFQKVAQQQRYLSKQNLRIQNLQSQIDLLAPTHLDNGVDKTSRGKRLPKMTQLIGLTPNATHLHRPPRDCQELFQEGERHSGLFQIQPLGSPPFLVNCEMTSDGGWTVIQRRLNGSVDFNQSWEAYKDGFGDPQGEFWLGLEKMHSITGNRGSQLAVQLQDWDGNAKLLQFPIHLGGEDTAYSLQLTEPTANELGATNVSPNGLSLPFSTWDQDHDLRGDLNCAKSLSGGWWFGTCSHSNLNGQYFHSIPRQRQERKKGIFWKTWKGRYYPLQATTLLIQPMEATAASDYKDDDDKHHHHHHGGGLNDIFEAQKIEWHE
The experiment is described as above. The procedure: as §1, §2, §3

In experiment [3] the target is T1, Human ANGPTL4(26-406)-FLAG-His6-Avi. Description: ForteBio Octet, biotinylated antigen on streptavidin sensor, antibody in solution. How it is done:
Dissociation constants (KD) were determined for selected antibodies of the invention by using an Octet (ForteBio) kinetic binding assay. ForteBio 10× Kinetics Buffer (ForteBio, catalog number 18-5032) was diluted 10-fold with DPBS (Life Technologies, catalog number 14190-136), and the resulting solution was added (0.2 ml per well) to a 96-well plate (Greiner, catalog number 65520). Streptavidin sensors (ForteBio, catalog number 18-5020) were immersed in the solution and equilibrated for at least 10 min at room temperature. In a second 96-well plate (Greiner, catalog number 65520), sensors were washed in 1× Kinetics buffer, and then immersed in 200 ul of 25 nM biotinylated human ANGPTL4 or a biotinylated reference protein (for background substraction) for 1000 sec […] at room temperature. The sensors were then washed in 1× Kinetics buffer for 120 sec, and immersed in 200 ul of ANGPTL4 antibody diluted in 1× Kinetics buffer at various concentrations (serial 2-fold dilutions ranging from 25 nM to 0.4 nM), and antibody association was monitored for 480 seconds. The sensors were then transferred to a well containing 200 ul 1× Kinetics buffer, and antibody dissociation was monitored for 1200 seconds. Background-corrected association and dissociation curves were globally fitted by Octet Software (ForteBio) to generate association (kₒₙ) and dissociation (koff) rate constants, which in turn were used to calculate equilibrium dissociation constants (KD).
(In general: BLI is a label-free optical method that tracks binding on a fibre tip over time.)

B1: MOR021792 (antibody, human IgG1, lambda, V domains shown)
VH: QVQLLESGGGLVQPGGSLRLSCAASGFTFSDYAMDWVRQAPGKGLEWVSKISYDGSYTYYADSVKGRFTISRDNSKNTLYLQMNSLRAEDTAVYYCARPSMSYYIIPAGFDVWGQGTLVTVSS
VL: DIELTQPPSVSVSPGQTASITCSGDALGVKRASWYQQKPGQAPVLVIYKDNNRPSGIPERFSGSNSGNTATLTISGTQAEDEADYYCSVRTWSMNLYVFGGGTKLTVLG
A word on the Kd: it is the constant that tells how readily two partners part at equilibrium. In general, koff refers to a measure of how fast the partners let go of each other. Low readings indicate slow dissociation, high ones fast dissociation. As a reminder, the kon is the rate constant with which the complex forms. A lower kon goes with slow association. For B1, the figures for the Kd in experiment [1], in experiment [2] and in experiment [3] were 0.01 nM, 0.005 nM and 0.184 nM, respectively. Also, the koff in experiment [3] was determined as 6.5e-05 s⁻¹. Besides, the kon in experiment [3] was 250000 M⁻¹ s⁻¹.

B2: MOR021798 (antibody, human IgG1, lambda, V domains shown)
VH: QVQLLESGGGLVQPGGSLRLSCAASGFTFSDYALHWVRQAPGKGLEWVSRISYMGSSTYYADSVKGRFTISRDNSKNTLYLQMNSLRAEDTAVYYCAREHYYSSPMGGVAVDNWGQGTLVTVSS
VL: DIVLTQPPSVSGAPGQRVTISCSGSSSNIGYNTVSWYQQLPGTAPKLLIYSNNIRPSGVPDRFSGSKSGTSASLAITGLQAEDEADYYCSSWDFLIKSLVFGGGTKLTVLG
notes: human IgG1
For B2, the dissociation constant Kd in experiment [1] turned out to be 0.093 nM. In experiment [2], this molecule had a Kd of 0.517 nM. In experiment [3], this molecule registered a Kd of 0.444 nM, a koff of 9.9e-05 s⁻¹ and a kon of 220000 M⁻¹ s⁻¹.

B3: MOR022765 (antibody, human IgG1, lambda, V domains shown)
VH: EVQLVQSGAEVKKPGESLKISCKGSGYSFSTYWISWVRQMPGKGLEWMGIIDPSSSDTRYSPSFQGQVTISADKSISTAYLQWSSLKASDTAMYYCARVYGYVYMDVWGQGTLVTVSS
VL: SYELTQPLSVSVALGQTARITCSGDNLGKKYAYWYQQKPGQAPVLVIYDKTKRPSGIPERFSGSNSGNTATLTISRAQAGDEADYYCASYDWYSSSYVFGGGTKLTVLG
notes: human IgG1
Consider B3, for which the affinity in experiment [1], expressed as Kd, was 0.01 nM.
